Measurements reported in publication PMC7806223.

Key:
[1] = molecular target: LH1 αβ heterodimer (Rhodopseudomonas palustris CGA009) (UniProt Q6N9L4); test: cryo-EM structure; RC-LH1_(16) complex purified from the ΔpufW strain (no protein-W); diluted in IMAC buffer (20 mM tris-HCl pH 8.0, 200 mM NaCl, 0.03% β-DDM); 2.80 Å
[2] = molecular target: LH1 αβ heterodimer (Rhodopseudomonas palustris CGA009) (UniProt Q6N9L4); test: cryo-EM structure; RC-LH1_(14)-W complex purified from the PufW-His strain; in IMAC buffer (20 mM tris-HCl pH 8.0, 200 mM NaCl, 0.03% β-DDM); 2.65 Å

LH1 αβ heterodimer (from UniProt Q6N9L4 1-50; Q6N9L5 2-53) (complex)
stoichiometry N (αβ heterodimers in the closed ring) [1]: 16
stoichiometry N (αβ heterodimers in the open ring) [2]: 14
